Measurements published in patent US20250163182A1 (Janssen / Centocor, published 2025).
Residue numbers refer to the chain shown, from its start.

T1: human ENPP3 (human, UniProt O14638 46-875, limits assumed)
T1 construct: neither the construct nor the method is stated; also called ectonucleotide pyrophosphatase/phosphodiesterase family member 3
T1 sequence (looked up): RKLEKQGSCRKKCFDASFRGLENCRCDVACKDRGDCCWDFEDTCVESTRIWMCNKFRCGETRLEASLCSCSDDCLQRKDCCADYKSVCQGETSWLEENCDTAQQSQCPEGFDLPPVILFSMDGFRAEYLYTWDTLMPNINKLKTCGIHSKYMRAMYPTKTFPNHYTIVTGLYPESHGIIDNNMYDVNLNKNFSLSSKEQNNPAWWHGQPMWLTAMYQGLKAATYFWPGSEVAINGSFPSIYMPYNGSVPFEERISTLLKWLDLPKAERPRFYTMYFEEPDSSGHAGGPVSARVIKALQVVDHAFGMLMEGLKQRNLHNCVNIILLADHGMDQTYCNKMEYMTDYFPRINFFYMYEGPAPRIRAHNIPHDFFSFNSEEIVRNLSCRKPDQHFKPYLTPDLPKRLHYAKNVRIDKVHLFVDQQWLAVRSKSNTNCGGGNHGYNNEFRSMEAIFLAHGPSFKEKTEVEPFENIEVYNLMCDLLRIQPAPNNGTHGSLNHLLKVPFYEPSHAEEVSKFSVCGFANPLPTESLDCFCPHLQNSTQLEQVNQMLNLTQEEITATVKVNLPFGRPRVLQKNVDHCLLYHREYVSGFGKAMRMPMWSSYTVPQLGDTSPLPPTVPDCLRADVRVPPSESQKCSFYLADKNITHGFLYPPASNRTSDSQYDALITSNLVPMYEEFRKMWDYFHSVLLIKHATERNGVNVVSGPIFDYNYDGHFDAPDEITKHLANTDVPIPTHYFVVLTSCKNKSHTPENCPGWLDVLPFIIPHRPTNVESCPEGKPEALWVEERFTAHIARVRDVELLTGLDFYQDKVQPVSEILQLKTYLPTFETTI

T2: cynomolgus monkey ENPP3 (cynomolgus monkey, UniProt A0A2K5TKP4 46-874)
T2 construct: also called cyno ENPP3
T2 sequence: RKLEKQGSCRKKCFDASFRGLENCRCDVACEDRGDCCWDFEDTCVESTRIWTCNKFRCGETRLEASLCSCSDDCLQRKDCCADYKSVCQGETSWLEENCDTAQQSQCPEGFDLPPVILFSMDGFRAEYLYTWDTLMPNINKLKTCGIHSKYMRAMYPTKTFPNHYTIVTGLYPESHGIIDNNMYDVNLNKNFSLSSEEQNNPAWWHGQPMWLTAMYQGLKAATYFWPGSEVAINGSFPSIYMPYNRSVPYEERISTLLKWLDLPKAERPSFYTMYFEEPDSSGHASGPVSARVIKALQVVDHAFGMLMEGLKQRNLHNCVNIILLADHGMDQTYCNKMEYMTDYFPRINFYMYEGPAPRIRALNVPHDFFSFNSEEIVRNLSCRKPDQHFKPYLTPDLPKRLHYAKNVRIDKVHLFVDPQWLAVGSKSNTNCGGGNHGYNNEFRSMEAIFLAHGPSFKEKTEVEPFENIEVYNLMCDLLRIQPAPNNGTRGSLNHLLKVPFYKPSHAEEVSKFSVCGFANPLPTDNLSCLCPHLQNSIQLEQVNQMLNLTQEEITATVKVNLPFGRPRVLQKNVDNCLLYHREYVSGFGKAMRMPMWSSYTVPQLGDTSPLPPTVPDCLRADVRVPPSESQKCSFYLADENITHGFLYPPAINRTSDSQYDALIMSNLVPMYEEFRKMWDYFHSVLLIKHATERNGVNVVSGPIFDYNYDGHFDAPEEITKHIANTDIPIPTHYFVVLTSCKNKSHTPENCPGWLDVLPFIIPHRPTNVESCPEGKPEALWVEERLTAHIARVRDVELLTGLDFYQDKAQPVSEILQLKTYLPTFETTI

B1: NPP3B98 (antibody, V domains shown)
VH: QVQLQESGPGLVKPSETLSLTCTVSGGSISNYYWSWIRQPAGKGLEWIGRIYASGSTNYNPSLKSRVTMSVDTSKNQFSLRLRSVTATDTAVYYCAREGYSSTLYDNAFDFWGQGTMVTVSS
VL: DIQMTQSPSSVSASVGGRVTITCRASQGISTWLAWYQQKPGKAPKLLIYAASSLQSGVPSRFSGSGSGTDFTLTISSLQPEDFATYYCQQANSFPLTFGGGTKVEIK
notes: mAb from Ablexis Kappa mice
B2: NPP3B60 (antibody, V domains shown)
VH: QVQLVQSGAEVKKPGESLKISCKGSGYGFTNYWIGWVRQMPGKGLEWMGIIYPSDSNTRYSPSFQGQVTISADKSINTAYLQWSSLKASDTAMYYCTRQNYYYYTMDVWGQGTTVTVSS
VL: DIQMTQSPSFLSASVGDRVTITCRASQVIRSYLAWYQQKPGKAPKLLIYGASTLQSGFPSRFSGSGSGTEFTLTISSLQPEDFATYYCQQLNSYPRTFGQGTKVEIK
notes: mAb from Ablexis Kappa mice
B3: NPP3B107 (antibody, V domains shown)
VH: EVQLVESGGGLVKPGGSLRLSCAASGFIFSDYSMNWVRQAPGKGLEWVSSISSGSSYIYYADSLKGRFTISRDNAKNSLYLQMSSLRAEDTAVYYCVRGLDYFDYWGQGALVTVSS
VL: B2 VL with V28D, R30S, S31N, K42R, G50V, F58V
notes: mAb from Ablexis Kappa mice
B4: NPP3B86 (antibody, V domains shown)
VH: QVQLVQSGAEVKKPGASVKVSCKASGYTVTNYYIFWVRQAPGQGLEWMGWINPNSGGTNYAQKFQGRVTMTRDTSINTAYMKLSRLGSDDTAVYYCARGGYSGYALSSHYGMDVWGQGTMVTVSS
VL: EIVLTQSPGTLSLSPGERATLSCRASQSVSSSYLAWYQQKPGQAPRLLIYDASSRATGIPDRFSGSGSGTDFTLIISRLEPEDFAVYYCQQYDSSPLTFGGGTKVEIK
notes: mAb from Ablexis Kappa mice
B5: NPP3B56 (antibody, V domains shown)
VH: EVQLVESGGGRVKPGGSLRLSCAASGFTFSDYSMNWVRQAPGKGLEWVSSISSISSYVKYADSVKGRFTMSRDNAKNSLFLQMNSLRDEDMAVYYCARGHYFDYWGQGTLVTVSS
VL: EIVMTQSPATLSVSPGERATLSCRASQSVSSNLAWYQQKPGLAPRLLIYGASTRATGIPARFSGSGSGTEFTLTISSLQSEDFAVYYCQQYNNWPRTFGQGTKVEIK
notes: mAb from Ablexis Kappa mice
B6: NPP3B100 (antibody, V domains shown)
VH: QVQLQESGPGLVKTSETLSLTCTVSGGSISSHYWSWIRQPPGKGLEWIGNIFYSGSTNYNPSLKSRVTMSVDTSKNHFSLKLISVTTADTAIYYCARHDHVWFDPWGQGTLVTVSS
VL: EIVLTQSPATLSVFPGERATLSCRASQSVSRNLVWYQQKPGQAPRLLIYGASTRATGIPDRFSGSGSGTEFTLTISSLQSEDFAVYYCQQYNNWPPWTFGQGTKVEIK
notes: mAb from Ablexis Kappa mice
B7: NPP3B64 (antibody, V domains shown)
VH: QVQLVQSGAEVKKPGASVKVSCKASGYTFTTYYIHWVRQAPGQGLEWMGIINPSGGSTNYAQKFQGRVTMTRDTSTRIVYMELGSLRSEDTAVYYCARDYYYYYYGMDVWGQGTTVTVSS
VL: DIVMTQSPLSLPVTLGQPASISCRSSQSLVRNGGYTYLNWLQQRPGQPPRLLIYQISNRFSGVPDRFSGSGAGTDFTLTISRVEAEDVGVYYCMQATQFPHTFGQGTKLEIK
notes: mAb from Ablexis Kappa mice

biological target: T1, human ENPP3; assay: binding affinity to human ENPP3; method not stated

Kd	Binder
0.129 nM	B1
0.448 nM	B2
0.133 nM	B3
0.245 nM	B4
0.215 nM	B5
0.0977 nM	B6
0.536 nM	B7

biological target: T2, cynomolgus monkey ENPP3; assay: binding affinity to cyno ENPP3; method not stated; biphasic

Kd	Binder
~1 nM	B1
~1 nM	B2
~20 nM	B3
~5 nM	B4
~2 nM	B5
~2 nM	B7
